# From US9023767B2, “γ-Secretase substrates and methods of use” (Memorial Sloan-Kettering Cancer Center, priority 2009, dated 2015)
# Where a SMILES comes first, the peptide text is derived from it. [ ]: non-standard residue; d: D form. The star is where a group is joined. Biotin = O=C1N[C@H]2[C@H](CS[C@H]2CCCCC(=O)*)N1; Bpa = N[C@@H](Cc1ccc(C(=O)c2ccccc2)cc1)C(=O)O; Sta = CC(C)C[C@H](N)[C@@H](O)CC(=O)O; Isovaleryl = CC(C)CC(=O)*
# What was measured:
# γ-secretase [1] = molecular target: T1, γ-secretase (Homo sapiens (Human), UniProt P49768+Q92542); test: In vitro γ-secretase assay, HeLa membrane, APP-derived substrates, ECL detection; assay type: biochemical; conditions: for inhibition of X40 production / suppression of Aβ production: 1 μM βCTF substrate; for γ-secretase activity %: cleavage of the substrate at the Aβ40 site, HeLa membrane, G2-10 antibody; for effect on γ-secretase processing of the S3 substrate (in trans): peptide 0.1, 1 and 10 μM, S3 0.5, 1 and 2 μM
# Procedure: The recombinant proteins were incubated with γ-secretase (40 μg/ml) in the presence or absence of 1 μM γ-secretase inhibitor L-685,458 (CAS [292632-98-5], shown below). The reaction mixture contains 0.25% 3[(3-cholamidopropyl) dimethylammonio]-2-hydroxypropanesulfonic acid (CHAPSO), 0.1 μg/μl BSA, protease inhibitor, 50 mM PIPES, pH 7.0, 5 mM MgCl2, 5 mM CaCl2 and 150 mM KCl. The reaction was incubated for 2.5 hr at 37° C. and stopped by adding RIPA buffer (150 mM NaCl, 1.0% NP-40, 0.5% sodium
# [drawing 1] deoxycholate, 0.1% SDS, 50 mM Tris HCl, pH 8.0). The products were detected with various antibody combinations as previously described (Lai et al., 2003; J. Biol. Chem., 278: 22475-22481; Li et al., 2000, Proc. Natl. Acad. Sci. USA, 97: 6138-6143; Yin et al., 2007, J. Biol. Chem., 282:23639-23644) using electrochemiluminescence (ECL). The amount of product was determined using synthetic peptide or recombinant standards. The Km and Vmax were determined from the Michaelis-Menten equation Michaelis-Menten Kinetics (ν=Vm[S]/([…]; ν: initial rate; Vm: maximum velocity; Km: the Michaelis-Menten constant, S: substrate). P-values were calculated from Student t-test. 7.1.5 Cell-Based Aβ Production Assay and Western Blot
# γ-secretase [2] = molecular target: T2, γ-secretase (Homo sapiens (Human), UniProt P49768); test: HTRF γ-secretase assay with Sb4 substrate; assay type: biochemical; conditions: for pilot screen result: 10 μM, 1536-well
# Source text: We set out to transfer the assay conditions obtained with the ECL method to an HTRF detection based format (FIG. 10b). The HTRF detection mixture consisted of mouse G2-10 antibody for recognition of the C-terminal epitope of the cleaved product, a Europium-labeled anti-mouse antibody (commonly, an antibody is conjugated with a cryptate ligand that forms a three dimensional coordination cage structure surrounding a lanthanide such as Eu^3+), along with Streptavidin conjugated to a trimeric form of the fluorescent protein allophycocyanin referred to as XL665. Cleavage of Sb4 substrate allows G2-10 mouse antibody to bind to the Aβ40-processed site on the cleaved substrate. The Steptavidin-XL665 conjugate binds directly with the biotin moiety on the N-terminal end of the Sb4 derived product. The anti-mouse Europium antibody targets to the G2-10 antibody, bringing all of these entities into close proximity. The Europium and XL665 reagents are a compatible pair of donor-acceptor fluorophores, and excitation of Europium at 337 nm results in fluorescence energy resonance transfer (FRET) to XL665 which fluoresces at 665 nm (FIG. 10b).
# Human γ-secretase was prepared from HeLa cell membranes as described previously (Li et al., 2000). Briefly, HeLa cell pellet was resuspended in 1×MES buffer (50 mM MES, pH 6.0, 150 mM KCl, 5 mM CaCl2, 5 mM MgCl2) and treated with ‘complete’ protease inhibitor (Boehringer Mannheim). The resuspended pellet was mechanically homogenized by passing the cells through the French Press (Spectronic Instruments), and subsequently spun down at 800 g to remove cell debris and nuclei. Next, the supernatants were spun at 100,000 g in order to pellet the membranes. The pelleted membranes were resuspended in 1×MES buffer to approximately 12 mg/ml. This entire procedure was performed at 4° C. HeLa membranes were solubilized using 1% CHAPSO detergent in 1×MES buffer with protease inhibitors. After incubating for 1 hr at 4° C., the membrane was spun down at 100,000 g and the supernatants were collected and stored at −70° C. The collected fraction is defined as solubilized γ-secretase.
# HTRF conditions were initially optimized in a 384-well format using a final volume of 20 μl. The high control for this assay was defined as the observed γ-secretase activity in the presence of 1% DMSO (v/v) and the low control as the activity observed when including 100 nM final concentration of Compound E (v/v). First, we determined a tolerable DMSO concentration that would not interfere with γ-secretase activity. Even with 3% DMSO (v/v) present in the assay mixture, there was virtually no effect on the γ-secretase activity (FIG. 11a), which was critical as delivery of library screening compounds required a final concentration of 2% DMSO (v/v) in the γ-secretase reaction. Next, we titrated the HTRF mixture components in an effort to minimize reagent costs for use in high throughput screening. […] Additionally, we varied Europium conjugated anti-mouse antibody and determined that 1 nM of this reagent in the HTRF mixture was sufficient for our assay conditions even though the signal continued to increase with higher concentrations of the anti-mouse antibody (FIG. 11c).
# We have further miniaturized the HTRF assay from the established 384-well format to a 1536-well platform enabling more efficient screening of large chemical libraries. […] Based on these optimization experiments, we set our final assay conditions at 0.3 nM G2-10, 1 nM anti-mouse antibody, 15 nM Streptavidin-XL665, and proceeded with the assay at 10 μl final volume (5 μl γ-secretase mix+5 μl HTRF mix) in the 1536-well format for screening.
# The pilot assay was performed in duplicate on two separate days to account for any day-to-day variability. […]
# γ-secretase [3] = molecular target: T1, γ-secretase; test: Photoaffinity labeling of γ-secretase in HeLa membrane by Aβ17-23BPA20-biotin; assay type: binding; conditions: probe 300 nM
# Procedure: FIG. 4. […] Various concentrations of inhibitor were incubated with APP substrate (S4) or Notch peptide substrate containing the C-terminal biotinylated transmembrane domain of Notch1 and HeLa cell membrane in the presence of 0.25% CHAPSO. Aβ40 was detected by G2-10 antibody. The cleaved Notch product was detected by Val1744 antibody that specifically recognizes the cleaved product between Gly1743 and Val1744. Activities are expressed as percentage relative to reading that was produced in DMSO control. […] Various concentrations of S4 substrate were incubated with HeLa membrane in fixed concentrations of inhibitor as indicated. The double reciprocal velocity (1/v) and substrate concentrations (1/S) are plotted to determine the type of inhibition. […] Assays were conducted as described in FIG. 4A. […] The labeled samples were solubilized with RIPA buffer. Biotinylated proteins were captured with streptavidin-agarose and probed by immunoblotting using antibodies against biotin, PS1-CTF, PS1-NTF, Nicastrin, PEN-2 and APH-1a. HeLa cell membrane proteins were directly loaded onto lanes indicated by an arrow in the PEN-2 and APH-1a blots as positive controls. […] Upper panel: PS1-NTF; Lower panel: PS1-CTF.
# The labeled proteins were eluted with 2×SDS sample buffer and analyzed with Western blotting using antibodies against the components of γ-secretase complex. Protein concentration was determined with the Dc protein assay kit (Bio-Rad)
# After the photolyzed membranes were solubilized, biotinylated proteins were captured, eluted and analyzed by western blotting with antibodies against biotin, PS1, nicastrin, PEN-2 and APH-1.
# γ-secretase [4] = molecular target: T2, γ-secretase; test: In vitro γ-secretase assay, solubilized γ-secretase, ECL; assay type: biochemical; conditions: substrate 1 μM, background with Compound E
# Source text: The γ-secretase cleaved Aβ product derived from C100Flag substrate was detected by a pair of antibodies (biotinylated 4G8 and ruthenylated G2-10*) while Sb4 cleaved product was detected by ruthenylated G2-10* alone (FIG. 10a) and quantified using electrochemiluminescence (ECL) technology.
# An in vitro assay was based on the one previously reported by Li et al. (2000), except we utilized Sb4 substrate that eliminated the need for biotinylated antibody. […] All assays incorporate ruthenylated G2-10* antibody to detect 40-site cleavage of APP or recombinant Sb4 substrate and quantitated activity by measuring ECL.
molecule,measurement,setting,value
αCTF: recombinant α-secretase cleaved APP C-terminal fragment,inhibition of X40 production,γ-secretase [1]; 0.25 μM,24%
same,suppression of Aβ production,γ-secretase [1]; 0.25 μM,66%
same,inhibition of X40 production,γ-secretase [1]; 0.5 μM,32%
same,suppression of Aβ production,γ-secretase [1]; 0.5 μM,71%
same,inhibition of X40 production,γ-secretase [1]; 1.0 μM,60%
same,suppression of Aβ production,γ-secretase [1]; 1.0 μM,82%
N.N.[Cl][Pt][Cl] [Cisplatin],pilot screen result,γ-secretase [2],active compound
CC(C)CC(=O)N[C@H](C(=O)N[C@H](C(=O)N[C@@H](CC(C)C)[C@@H](O)CC(=O)N[C@@H](C)C(=O)N[C@@H](CC(C)C)[C@@H](O)CC(=O)O)C(C)C)C(C)C [Pepstatin A] (Isovaleryl-VV[Sta]A[Sta]-OH),pilot screen result,γ-secretase [2],active compound
same,IC50,"γ-secretase [2]; dose response, read-out: IC50, HTRF assay",6.43 µM
CC(C)C[C@H](N)C(=O)N[C@H](C(=O)N[C@@H](Cc1ccccc1)C(=O)N[C@@H](Cc1ccc(C(=O)c2ccccc2)cc1)C(=O)N[C@@H](C)C(=O)N[C@@H](CCC(=O)O)C(=O)N[C@@H](CC(=O)O)C(=O)N[C@@H](CCCCNC(=O)CCCC[C@@H]1SC[C@@H]2NC(=O)N[C@@H]21)C(=O)O)C(C)C [Aβ17-23BPA^20-biotin] (H-LVF[Bpa]AEDK(Biotin)-OH; N-terminus and C-terminus assumed),"photolabeled bands, PS1",γ-secretase [3],co-migrated with PS1-CTF and PS1-NTF
same,photolabeling of PEN-2 and APH1a,γ-secretase [3],not PEN-2 or APH1a
same,photolabeling of nicastrin,γ-secretase [3],labels nicastrin
AviTag-KGAIIGLMVGGVVIATVIVITLVMLKKK [S1],γ-secretase activity %,γ-secretase [1],100 ± 4.2%
O=C(O)CCCC[C@@H]1SC[C@@H]2NC(=O)N[C@@H]21 [biotin],pilot screen result,γ-secretase [2],active hit
βCTF: recombinant β-secretase cleaved APP C-terminal fragment,Vmax,"γ-secretase [1]; Aβ40 product, 6E10/G2-10, ECL",16 ± 1 min⁻¹ µg⁻¹
same,Km,"γ-secretase [1]; Aβ40 product, 6E10/G2-10, ECL, read-out: apparent Km",0.47 ± 0.09 µM
same,rate of γ-secretase hydrolysis relative to αCTF-FLAG,"γ-secretase [1]; X40 production, 4G8/G2-10 antibodies",12 fold
AviTag-LVFFAEDVGSNKGAIIGLMVGGVVIATVIVITLVMLKKK [S2],γ-secretase activity %,γ-secretase [1],None
"Aβ1-7: Aβ1-16 derived synthetic peptide (DAEFRHD; Amyloid-beta protein 42; UniProt P05067 672-678, looked up, fragment)","inhibition of γ-secretase activity, APP processing",γ-secretase [1],no inhibition
same,effect on γ-secretase processing of the S3 substrate (in trans),γ-secretase [1],no difference
"P3-42: synthetic P3 peptide Aβ17-42 (LVFFAEDVGSNKGAIIGLMVGGVVIA; Amyloid-beta protein 42; UniProt P05067 688-713, looked up, fragment)",inhibition of Aβ40 production,"γ-secretase [1]; 1, 3, 10 and 30 nM, βCTF or βCTFΔ substrate",did not inhibit
C100Flag: truncated APP protein used in previously published γ-secretase assays,ratio of signal to background,γ-secretase [4],7 to 1
"Aβ8-16: Aβ1-16 derived synthetic peptide (SGYEVHHQK; Amyloid-beta protein 42; UniProt P05067 679-687, looked up, fragment)",effect on γ-secretase processing of the S3 substrate (in trans),γ-secretase [1],no difference
"Sb4: biotinylated AviTag-APP695(620-695) recombinant substrate (protein, listed as Homo sapiens, biotinylated, biotinylated AviTag-APP695(620-695) recombinant substrate) GLNDIFEAQKIEWHEVGSNKGAIIGLMVGGVVIATVIVITLVMLKKKQYTSIHHGVVEVDAAVTPEERHLSKMQQNGYENPTYKFFEQMQN",ratio of signal to background,γ-secretase [4],93 to 1
"S3: AviTag substrate from Aβ17 with C-terminal tail of APP and FLAG (protein, listed as Homo sapiens) GLNDIFEAQKIEWHELVFFAEDVGSNKGAIIGLMVGGVVIATVIVITLVMLKKKQYTSIHHGVVEVDAAVTPEERHLSKMQQNGYENPTYKFFEQMQNDYKDDDDK",γ-secretase activity %,γ-secretase [1],None
